The source of these data is PMC5358725 (Genes & Development, 2017).

The target in this assay is T1, Flag-3C-Mcm10-V5 (S. cerevisiae, UniProt P32354 1-571).
T1 sequence: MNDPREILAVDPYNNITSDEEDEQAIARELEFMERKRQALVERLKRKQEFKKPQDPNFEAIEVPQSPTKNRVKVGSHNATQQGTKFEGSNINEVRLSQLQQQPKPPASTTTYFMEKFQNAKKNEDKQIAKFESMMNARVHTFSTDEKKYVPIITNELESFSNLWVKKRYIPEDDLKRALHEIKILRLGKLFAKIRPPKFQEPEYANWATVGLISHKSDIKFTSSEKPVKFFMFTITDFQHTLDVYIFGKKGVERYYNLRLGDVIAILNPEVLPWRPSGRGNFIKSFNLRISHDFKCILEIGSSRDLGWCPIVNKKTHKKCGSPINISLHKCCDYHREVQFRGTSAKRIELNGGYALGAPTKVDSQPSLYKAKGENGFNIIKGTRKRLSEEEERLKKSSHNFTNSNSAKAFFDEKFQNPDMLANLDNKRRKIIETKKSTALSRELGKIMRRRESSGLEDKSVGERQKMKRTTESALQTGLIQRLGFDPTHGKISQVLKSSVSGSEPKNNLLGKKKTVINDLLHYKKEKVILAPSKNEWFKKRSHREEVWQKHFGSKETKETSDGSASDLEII
The assay is described as follows: co-IP.

B1: Mcm2 1–483 (C-terminally 6xHis-tagged) (domain or fragment)
chain: MSDNRRRRREEDDSDSENELPPSSPQQHFRGGMNPVSSPIGSPDMINPEGDDNEVDDVPDIDEVEEQMNEVDLMDDNMYEDYAADHNRDRYDPDQVDDREQQELSLSERRRIDAQLNERDRLLRNVAYIDDEDEEQEGAAQLDEMGLPVQRRRRRRQYEDLENSDDDLLSDMDIDPLREELTLESLSNVKANSYSEWITQPNVSRTIARELKSFLLEYTDETGRSVYGARIRTLGEMNSESLEVNYRHLAESKAILALFLAKCPEEMLKIFDLVAMEATELHYPDYARIHSEIHVRISDFPTIYSLRELRESNLSSLVRVTGVVTRRTGVFPQLKYVKFNCLKCGSILGPFFQDSNEEIRISFCTNCKSKGPFRVNGEKTVYRNYQRVTLQEAPGTVPPGRLPRHREVILLADLVDVSKPGEEVEVTGIYKNNYDGNLNAKNGFPVFATIIEANSIKRREGNTANEGEEGLDVFSWTEEEERE
Turning to B1, the binding result is listed as “binds”.

B2: MBP-Mcm2 196–299 (domain or fragment)
chain: EWITQPNVSRTIARELKSFLLEYTDETGRSVYGARIRTLGEMNSESLEVNYRHLAESKAILALFLAKCPEEMLKIFDLVAMEATELHYPDYARIHSEIHVRISD
On to B2, for which the binding result is given as “binds”.
